The values below come from US20210170043A1, “DC-SIGN ANTIBODY CONJUGATES COMPRISING STING AGONISTS” (NOVARTIS AG, priority 2018, published 2021).

Some results are limits rather than exact numbers.

For one test, the target named is T1, human L-SIGN (Homo sapiens, UniProt Q9H2X3).
T1 construct: expressed in transfected cells; host or cells: K562, retroviral transduction
T1 sequence (Q9H2X3 1-399): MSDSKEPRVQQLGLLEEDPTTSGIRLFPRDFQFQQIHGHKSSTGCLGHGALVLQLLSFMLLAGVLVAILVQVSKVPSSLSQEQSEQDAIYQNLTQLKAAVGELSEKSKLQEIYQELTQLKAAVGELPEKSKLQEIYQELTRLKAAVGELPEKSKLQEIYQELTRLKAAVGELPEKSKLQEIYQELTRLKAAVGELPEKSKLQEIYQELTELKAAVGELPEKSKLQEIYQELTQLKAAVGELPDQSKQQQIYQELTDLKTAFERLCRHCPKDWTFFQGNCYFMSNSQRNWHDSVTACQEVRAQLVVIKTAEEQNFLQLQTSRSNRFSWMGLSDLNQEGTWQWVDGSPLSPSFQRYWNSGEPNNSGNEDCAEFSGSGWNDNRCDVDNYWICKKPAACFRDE
The test is described as follows: FACS binding to K562 cells expressing human L-SIGN (selectivity). Conditions: FACS MFI. As for the experimental part: (§1) The affinity of various antibodies and ADCs to DC-SIGN and its species orthologues was determined using FACS. Purified IgGs were titrated to determine EC50 values for binding to cell surface expressed DC-SIGN.
(§2) For this purpose, human DC-SIGN expressing or cynomolgus monkey DC-SIGN expressing stable CHO cell lines or K562 expressing DC-SIGN or K562 expressing L-SIGN cell lines were checked for density and viability using VICELL (Beckman Coulter), and washed once with 4° C. PBS. Cells were stained with DAPI (0.5 ug/mL) diluted in PBS for 30 min on ice. Cells were diluted into 4° C. FACS buffer (PBS, 10 mM EDTA, 2% FBS). 125 μl of cells were seeded (10,000 cells/well) into 96-well v-bottom plates (Nunc cat#442587) and centrifuged for 4 min at 1500 rpm at 4° C. Supernatant was removed. Cells were incubated with a serial dilution of each anti-DC-SIGN antibody in FACS buffer at concentrations ranging across several logs with a top concentration no higher than 50 μg/mL for 60 minutes at 4° C. Following incubation, cells were spun down (1500 rpm, 4 min, 4° C.) and washed two times with FACS buffer. A fluorophore-conjugated anti-hFc gamma-AF-647 (Southern Biotechnology) detection antibody was added at 1:400 and samples were incubated for 1 h on ice in the dark. Following incubation, FACS buffer was added, and the cells were spun down (1500 rpm, 4 min, 4° C.) and washed two times with FACS buffer. After the final wash, cells were resuspended in Fixative Buffer (Biolegend, 420801) and 90 μl of FACS buffer followed by readout on the flow cytometry machine (BD LSRFortessa Cell Analyzer; Cat #647177). Geometric Mean fluorescence intensity (MFI) of live, single cells was calculated in Flowjo 10.4.2 and exported into Graphpad Prism7 for EC50 determination.
Selectivity was assessed by measuring apparent binding affinities to isogenic cell pairs engineered to overexpress DC-SIGN as well as cell lines expressing DC-SIGN paralog L-SIGN.
For orientation: In flow cytometry, cells or beads pass a laser one at a time.

The target in test [1] is T2, human DC-SIGN (Homo sapiens, UniProt Q9NNX6).
T2 construct: expressed in transfected cells
T2 sequence (Q9NNX6 1-404): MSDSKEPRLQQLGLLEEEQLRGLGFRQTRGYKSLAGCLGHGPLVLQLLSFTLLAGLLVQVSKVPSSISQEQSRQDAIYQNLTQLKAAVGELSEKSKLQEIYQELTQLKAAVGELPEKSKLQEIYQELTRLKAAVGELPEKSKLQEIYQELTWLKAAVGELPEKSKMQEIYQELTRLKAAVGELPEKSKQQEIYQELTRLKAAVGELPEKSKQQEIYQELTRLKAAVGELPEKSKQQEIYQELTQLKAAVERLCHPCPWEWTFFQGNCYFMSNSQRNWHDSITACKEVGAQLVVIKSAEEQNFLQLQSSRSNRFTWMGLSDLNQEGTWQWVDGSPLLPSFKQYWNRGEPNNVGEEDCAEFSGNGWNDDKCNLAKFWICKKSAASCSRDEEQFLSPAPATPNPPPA
The test is described as follows: FACS binding to CHO cells stably expressing human DC-SIGN. Conditions: FACS MFI, average. The method, then:
as §1, §2

Test [2] addresses T2, human DC-SIGN. The test is described as follows: FACS binding to K562 cells expressing human DC-SIGN. Conditions: FACS MFI. The method, then: as §1, §2
Test [3] has as its system cynomolgus monkey DC-SIGN. The test is described as follows: FACS binding to CHO cells stably expressing cynomolgus monkey DC-SIGN. Conditions: FACS MFI, average. The method, then:
as §1, §2
In a similar experiment the antibodies were tested for cross-reactivity using engineered isogenic matched cell line.

Chain of cynomolgus monkey DC-SIGN (as listed by the source): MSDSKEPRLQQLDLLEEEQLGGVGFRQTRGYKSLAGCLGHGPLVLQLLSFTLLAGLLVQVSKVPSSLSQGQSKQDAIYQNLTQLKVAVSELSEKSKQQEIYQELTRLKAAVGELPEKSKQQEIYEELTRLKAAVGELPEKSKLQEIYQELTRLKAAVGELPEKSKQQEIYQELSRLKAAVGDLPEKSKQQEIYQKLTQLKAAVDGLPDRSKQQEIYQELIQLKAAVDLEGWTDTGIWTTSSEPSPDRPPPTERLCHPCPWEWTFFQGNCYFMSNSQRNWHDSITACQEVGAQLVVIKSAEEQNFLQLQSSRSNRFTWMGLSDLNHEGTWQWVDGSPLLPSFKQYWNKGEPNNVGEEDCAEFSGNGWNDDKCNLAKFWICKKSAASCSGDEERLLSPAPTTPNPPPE

B1: 1G12 Hz: humanized VL and VH domains of antibody 1G12 (antibody)
heavy: QVQLQESGPGLVKPSETLSLTCTVSGFSLTNYGVHWIRQPPGKGLEWIGVIWRGESTDYNAAFMSRVTISKDDSKSQVSLKLSSVTAADTAVYYCARNGGSSGWYFDVWGQGTTVTVSSASTKGPSVFPLAPSSKSTSGGTAALGCLVKDYFPCPVTVSWNSGALTSGVHTFPAVLQSSGLYSLSSVVTVPSSSLGTQTYICNVNHKPSNTKVDKRVEPKSCDKTHTCPPCPAPELLGGPSVFLFPPKPKDTLMISRTPEVTCVVVAVSHEDPEVKFNWYVDGVEVHNAKTKPREEQYNSTYRVVSVLTVLHQDWLNGKEYKCKVSNKALAAPIEKTISKAKGQPREPQVYTLPPSREEMTKNQVSLTCLVKGFYPCDIAVEWESNGQPENNYKTTPPVLDSDGSFFLYSKLTVDKSRWQQGNVFSCSVMHEALHNHYTQKSLSLSPGK
light: DIQLTQSPSFLSASVGDRVTITCKASQDVTSAVAWYQQKPGKAPKLLIYWTSTRHTGVPSRFSGSGSGTEYTLTISSLQPEDFATYYCQQHYTTPLTFGQGTKLEIKRTVAAPSVFIFPPSDEQLKSGTASVVCLLNNFYPREAKVQWKVDNALQSGNSQESVTEQDSKDSTYSLSSTLTLSKADYEKHKVYACEVTHQGLSSPVTKSFNRGEC
With B1, the “human L-SIGN K562 EC50” value with human L-SIGN is over 10 µg/mL. Besides, the “human DC-SIGN CHO EC50 (ug/mL) ave.” value in the test with human DC-SIGN [1] is 0.07 µg/mL. In addition, the “human DC-SIGN K562 EC50” value with human DC-SIGN [2] was found to be 0.021 µg/mL. Also, the “cyno DC-SIGN CHO EC50 (ug/mL) ave.” value in test [3] came out at 0.06 µg/mL.

B2: 2B2 Chimeric: chimeric antibody chains comprising a murine variable region and human constant region (antibody)
heavy: EVQLQQSGAELVRPGSSVKMSCKTSGYTFTNYGINWVKQRPGQGLEWIGYIYIGNDYTEYNERFKGKATLTSDTSSSTAHIQLNSLTSEDSAIYFCARLYYGSSLYSYAMDYWGQGTSVTVSSASTKGPSVFPLAPSSKSTSGGTAALGCLVKDYFPCPVTVSWNSGALTSGVHTFPAVLQSSGLYSLSSVVTVPSSSLGTQTYICNVNHKPSNTKVDKRVEPKSCDKTHTCPPCPAPELLGGPSVFLFPPKPKDTLMISRTPEVTCVVVAVSHEDPEVKFNWYVDGVEVHNAKTKPREEQYNSTYRVVSVLTVLHQDWLNGKEYKCKVSNKALAAPIEKTISKAKGQPREPQVYTLPPSREEMTKNQVSLTCLVKGFYPCDIAVEWESNGQPENNYKTTPPVLDSDGSFFLYSKLTVDKSRWQQGNVFSCSVMHEALHNHYTQKSLSLSPGK
light: DIVMTQAAPSVSVTPGESVSISCRSSKSLLHSSGNTYLYWFLQRPGQSPQLLISRMSNLASGVPDRFSGSGSGTAFTLRISRVEAEDVGVYYCMQHLEYPYTFGGGTKLELKRTVAAPSVFIFPPSDEQLKSGTASVVCLLNNFYPREAKVQWKVDNALQSGNSQESVTEQDSKDSTYSLSSTLTLSKADYEKHKVYACEVTHQGLSSPVTKSFNRGEC
With B2, the “human L-SIGN K562 EC50” value with human L-SIGN is over 10 µg/mL.

B3: 952P16 N92Q: optimization of sequences by removal of post-translational modifications, non-preferred sites; substitutions made by site directed mutagenesis (antibody)
heavy: QVTLRESGPALVKPTQTLTLTCTFSGFSLSTSGVSVSWIRQPPGKALEWLALIDWDDDKYYSTSLKTRLTISKDTSKNQVVLTMTNMDPVDTATYYCARTPSGSYGRYFDLWGRGTLVTVSSASTKGPSVFPLAPSSKSTSGGTAALGCLVKDYFPCPVTVSWNSGALTSGVHTFPAVLQSSGLYSLSSVVTVPSSSLGTQTYICNVNHKPSNTKVDKRVEPKSCDKTHTCPPCPAPELLGGPSVFLFPPKPKDTLMISRTPEVTCVVVAVSHEDPEVKFNWYVDGVEVHNAKTKPREEQYNSTYRVVSVLTVLHQDWLNGKEYKCKVSNKALAAPIEKTISKAKGQPREPQVYTLPPSREEMTKNQVSLTCLVKGFYPCDIAVEWESNGQPENNYKTTPPVLDSDGSFFLYSKLTVDKSRWQQGNVFSCSVMHEALHNHYTQKSLSLSPGK
light: DIQMTQSPSTLSASVGDRVTITCRASQSISNWLAWYQQKPGKAPKLLIYKASSLESGVPSRFSGSGSGTEFTLTISSLQPDDFATYYCQQYQSYWTFGQGTKVEIKRTVAAPSVFIFPPSDEQLKSGTASVVCLLNNFYPREAKVQWKVDNALQSGNSQESVTEQDSKDSTYSLSSTLTLSKADYEKHKVYACEVTHQGLSSPVTKSFNRGEC
As for B3, in the test with human L-SIGN, the “human L-SIGN K562 EC50” value is over 10 µg/mL. Moreover, in the test with human DC-SIGN [2], the “human DC-SIGN K562 EC50” value worked out at 0.024 µg/mL.

B4: 952G04 N92Q: optimization of sequences by removal of post-translational modifications, non-preferred sites; substitutions made by site directed mutagenesis (antibody)
heavy: QVTLRESGPALVKPTQTLTLTCTFSGFSLSTSGVSVTWIRQPPGKALEWLALIDWDDDKYYSTSLKTRLAISKDTSKNQVVLTMTNMDPVDTATYYCARTPSGSYGRYFDLWGRGTLVTVSSASTKGPSVFPLAPSSKSTSGGTAALGCLVKDYFPCPVTVSWNSGALTSGVHTFPAVLQSSGLYSLSSVVTVPSSSLGTQTYICNVNHKPSNTKVDKRVEPKSCDKTHTCPPCPAPELLGGPSVFLFPPKPKDTLMISRTPEVTCVVVAVSHEDPEVKFNWYVDGVEVHNAKTKPREEQYNSTYRVVSVLTVLHQDWLNGKEYKCKVSNKALAAPIEKTISKAKGQPREPQVYTLPPSREEMTKNQVSLTCLVKGFYPCDIAVEWESNGQPENNYKTTPPVLDSDGSFFLYSKLTVDKSRWQQGNVFSCSVMHEALHNHYTQKSLSLSPGK
light: DIQMTQSPSTLSASVGDRVTITCRASQSISTWLAWYQQKPGKAPKLLIYEASSLESGVPSRFSGSGSGTEFTLTISSLQPDDFATYYCQQYQSYWTFGQGTKVEIKRTVAAPSVFIFPPSDEQLKSGTASVVCLLNNFYPREAKVQWKVDNALQSGNSQESVTEQDSKDSTYSLSSTLTLSKADYEKHKVYACEVTHQGLSSPVTKSFNRGEC
B4: the “human L-SIGN K562 EC50” value with human L-SIGN was over 10 µg/mL. Besides, the “human DC-SIGN CHO EC50 (ug/mL) ave.” value in the test with human DC-SIGN [1] came to 0.07 µg/mL. The “human DC-SIGN K562 EC50” value with human DC-SIGN [2] amounted to 0.017 µg/mL. Moreover, in test [3], the “cyno DC-SIGN CHO EC50 (ug/mL) ave.” value came out at 0.02 µg/mL.

B5: 960K03 N92S: optimization of sequences by removal of post-translational modifications, non-preferred sites; substitutions made by site directed mutagenesis (antibody)
heavy: QVTLRESGPALVKPTQTLTLTCTFSGFSLSTGGMSVSWIRQPPGKALEWLALIDWDDDKYYSTSLKTRLTISKDTSKNQLVLTMTNMDPVDTATYYCARAHSGSYFDFWGQGTLVTVSSASTKGPSVFPLAPSSKSTSGGTAALGCLVKDYFPCPVTVSWNSGALTSGVHTFPAVLQSSGLYSLSSVVTVPSSSLGTQTYICNVNHKPSNTKVDKRVEPKSCDKTHTCPPCPAPELLGGPSVFLFPPKPKDTLMISRTPEVTCVVVAVSHEDPEVKFNWYVDGVEVHNAKTKPREEQYNSTYRVVSVLTVLHQDWLNGKEYKCKVSNKALAAPIEKTISKAKGQPREPQVYTLPPSREEMTKNQVSLTCLVKGFYPCDIAVEWESNGQPENNYKTTPPVLDSDGSFFLYSKLTVDKSRWQQGNVFSCSVMHEALHNHYTQKSLSLSPGK
light: DIQMTQSPSTLSASVGDRVTITCRASQRISNWLAWYQQKPGKAPKLLIYKASSLESGVPSRFSGSGSGTEFTLTISSLQPDDFATYYCQQFSSYWTFGQGTKVEIKRTVAAPSVFIFPPSDEQLKSGTASVVCLLNNFYPREAKVQWKVDNALQSGNSQESVTEQDSKDSTYSLSSTLTLSKADYEKHKVYACEVTHQGLSSPVTKSFNRGEC
In the case of B5, in the test with human DC-SIGN [1], the “human DC-SIGN CHO EC50 (ug/mL) ave.” value is 0.06 µg/mL. Also, the “human DC-SIGN K562 EC50” value with human DC-SIGN [2] is 0.049 µg/mL. Also, in test [3], the “cyno DC-SIGN CHO EC50 (ug/mL) ave.” value amounted to 0.08 µg/mL.
